The source of these data is paper PMC7340258, “Induced DNA bending by unique dimerization of HigA antitoxin” (IUCrJ, 2020).

Series [1] addresses T1, MtHigA3 (Mycobacterium tuberculosis H37Rv, UniProt O53333 1-109).
T1 sequence: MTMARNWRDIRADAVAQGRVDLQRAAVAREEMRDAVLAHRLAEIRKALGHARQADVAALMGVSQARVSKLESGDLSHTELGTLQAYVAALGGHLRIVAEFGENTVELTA
As to the kind of experiment: EMSA; 0.1-0.6 uM protein, 0.01 uM DNA. Conditions: protein: recombinant; tags: C-terminal […]; chain copies: 2; blunt. A general note: Mobility shift assays separate free from complexed probe on a gel.

Series [2] deals with the molecule itself. As to the kind of experiment: SEC; Superdex 75 (10/300GL), 20 mM citric acid pH 5.0, 150 mM NaCl, 2 mM β-mercaptoethanol; single peak at 26 kDa. On the technique in general: In gel filtration, larger molecules generally elute earlier.

B1: DNA1 (DNA-1, -35 box) (dsDNA)
DNA 1: CCGACGATGACCGCGCAC
DNA 2: GTGCGCGGTCATCGTCGG
For B1, the binding result in series [1] is “no binding”.

B2: DNA4 (DNA-4, palindrome around -10 box) (dsDNA)
DNA 1: AGATATAACCTAGAGGTTATACTG
DNA 2: CAGTATAACCTCTAGGTTATATCT
As to B2, the binding result in series [1] is “no binding”.

B3: M. tuberculosis HigA3 antitoxin (natural protein)
chain: T1 sequence
notes: also called MtHigA3
As for B3, the “stoichiometry N” value in series [2] came to 2.

As a reminder, the stoichiometry N is the number of molecules, sites or subunits per partner or assembly.
